From patent US20220315554A1, “COMPOUNDS COMPRISING A […] LIGAND AND USE THEREOF” (priority 2019, published 2022)
Bridge positions count the residues as written; N and C are the ends. * marks the point of attachment. tMeBn(DOTA-AET) = Cys-Cys bridge (thioethers) carrying DOTA-AET; tMeBn(DOTA-PP) = Cys-Cys bridge (thioethers) carrying DOTA-PP; Hexanoyl = CCCCCC(=O)*

T1: delta (DOP) (h) (human), P41143
T1 chain: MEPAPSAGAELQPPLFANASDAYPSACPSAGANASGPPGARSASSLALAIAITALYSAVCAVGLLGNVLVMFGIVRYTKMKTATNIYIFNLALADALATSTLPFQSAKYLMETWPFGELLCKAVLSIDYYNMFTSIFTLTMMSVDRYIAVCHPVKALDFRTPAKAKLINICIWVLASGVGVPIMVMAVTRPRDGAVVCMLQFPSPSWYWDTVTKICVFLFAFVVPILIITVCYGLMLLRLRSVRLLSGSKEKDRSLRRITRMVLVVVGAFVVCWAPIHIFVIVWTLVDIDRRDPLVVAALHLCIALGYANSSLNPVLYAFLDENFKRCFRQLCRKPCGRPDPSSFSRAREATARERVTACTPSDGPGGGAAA

T2: GR (h) (human (printed (h))), P04150
T2 chain: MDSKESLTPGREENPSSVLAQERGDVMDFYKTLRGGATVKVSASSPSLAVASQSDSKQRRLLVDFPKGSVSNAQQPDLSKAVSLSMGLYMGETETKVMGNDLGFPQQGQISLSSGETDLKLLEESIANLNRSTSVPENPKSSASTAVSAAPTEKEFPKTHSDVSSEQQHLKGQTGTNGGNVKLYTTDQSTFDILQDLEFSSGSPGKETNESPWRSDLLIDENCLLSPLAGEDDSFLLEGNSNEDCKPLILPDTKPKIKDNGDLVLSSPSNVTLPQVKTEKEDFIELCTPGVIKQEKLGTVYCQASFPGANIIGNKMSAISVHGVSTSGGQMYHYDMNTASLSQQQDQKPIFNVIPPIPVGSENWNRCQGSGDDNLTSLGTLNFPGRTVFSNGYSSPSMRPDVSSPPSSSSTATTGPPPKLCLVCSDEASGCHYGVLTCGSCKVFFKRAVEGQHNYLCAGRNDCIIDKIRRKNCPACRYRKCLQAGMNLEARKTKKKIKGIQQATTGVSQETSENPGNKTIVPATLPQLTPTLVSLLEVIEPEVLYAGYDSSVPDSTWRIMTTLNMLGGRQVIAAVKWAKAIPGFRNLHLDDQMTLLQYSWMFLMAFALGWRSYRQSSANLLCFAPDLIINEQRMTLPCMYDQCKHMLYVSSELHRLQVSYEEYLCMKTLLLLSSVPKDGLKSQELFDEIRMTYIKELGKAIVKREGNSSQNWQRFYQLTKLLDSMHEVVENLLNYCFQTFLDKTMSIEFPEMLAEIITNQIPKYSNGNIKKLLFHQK

T3: ETA (h) (human (printed (h))), P25101
T3 chain: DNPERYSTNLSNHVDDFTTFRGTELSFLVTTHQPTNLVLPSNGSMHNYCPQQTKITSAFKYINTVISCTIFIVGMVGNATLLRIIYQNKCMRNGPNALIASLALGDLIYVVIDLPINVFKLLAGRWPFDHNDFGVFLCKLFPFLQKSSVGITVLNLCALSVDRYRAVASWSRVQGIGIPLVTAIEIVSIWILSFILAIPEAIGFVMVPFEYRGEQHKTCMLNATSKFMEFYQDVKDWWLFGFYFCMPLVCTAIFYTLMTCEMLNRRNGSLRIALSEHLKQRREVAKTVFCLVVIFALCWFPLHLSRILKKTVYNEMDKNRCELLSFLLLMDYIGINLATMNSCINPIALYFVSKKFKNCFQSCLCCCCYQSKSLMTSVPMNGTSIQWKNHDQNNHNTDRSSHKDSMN

T4: dopamine transporter (h) (human (printed (h))), Q01959
T4 chain: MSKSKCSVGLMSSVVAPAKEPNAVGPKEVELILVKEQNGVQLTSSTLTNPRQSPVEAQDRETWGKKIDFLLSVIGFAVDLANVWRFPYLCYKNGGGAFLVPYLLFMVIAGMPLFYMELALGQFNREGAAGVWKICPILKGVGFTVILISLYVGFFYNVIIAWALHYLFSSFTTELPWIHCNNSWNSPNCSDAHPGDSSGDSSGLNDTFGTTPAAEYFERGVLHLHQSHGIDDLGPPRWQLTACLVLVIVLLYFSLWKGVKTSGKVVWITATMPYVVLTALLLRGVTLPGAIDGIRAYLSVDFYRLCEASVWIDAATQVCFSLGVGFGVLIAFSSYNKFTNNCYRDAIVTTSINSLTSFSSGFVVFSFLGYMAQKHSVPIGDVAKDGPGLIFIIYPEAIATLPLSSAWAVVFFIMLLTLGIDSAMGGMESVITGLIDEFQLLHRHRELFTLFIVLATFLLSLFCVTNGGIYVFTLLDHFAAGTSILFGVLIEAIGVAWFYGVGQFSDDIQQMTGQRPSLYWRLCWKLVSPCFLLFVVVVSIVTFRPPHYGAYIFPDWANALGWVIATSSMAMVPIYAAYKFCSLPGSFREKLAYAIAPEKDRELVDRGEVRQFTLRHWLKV

T5: 5-HT1A (h) (human (printed (h))), P08908
T5 chain: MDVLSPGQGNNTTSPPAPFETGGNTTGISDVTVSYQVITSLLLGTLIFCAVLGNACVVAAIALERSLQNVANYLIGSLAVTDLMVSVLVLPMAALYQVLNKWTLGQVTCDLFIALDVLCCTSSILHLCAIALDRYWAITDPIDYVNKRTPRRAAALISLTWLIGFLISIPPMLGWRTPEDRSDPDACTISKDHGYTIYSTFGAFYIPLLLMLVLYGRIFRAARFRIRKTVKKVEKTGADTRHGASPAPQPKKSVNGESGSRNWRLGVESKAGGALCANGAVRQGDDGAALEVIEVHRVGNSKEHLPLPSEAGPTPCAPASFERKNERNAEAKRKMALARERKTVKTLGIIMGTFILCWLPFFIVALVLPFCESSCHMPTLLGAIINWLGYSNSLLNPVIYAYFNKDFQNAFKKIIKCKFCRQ


Columns and labels:
Test in all cases: radioligand displacement, 10 uM compound
Settings in all cases: remark: other sources report otherwise
[1] = target: V1a (h) (human (printed (h))), P37288
[2] = target: 5-HT2A (h) (human (printed (h))), P28223
[3] = target: M3 (h) (human (printed (h))), P20309
[4] = target: T1, delta (DOP) (h) (human), …
[5] = target: T2, GR (h) (human (printed (h))), P04150
[6] = target: T3, ETA (h) (human (printed (h))), P25101
[7] = target: H2 (h) (human (printed (h))), P25021
[8] = target: T4, dopamine transporter (h) (human …)
[9] = target: T5, 5-HT1A (h) (human (printed (h))), P08908

H2 (h) (human (printed (h))), P25021, sequence (P25021 whole entry): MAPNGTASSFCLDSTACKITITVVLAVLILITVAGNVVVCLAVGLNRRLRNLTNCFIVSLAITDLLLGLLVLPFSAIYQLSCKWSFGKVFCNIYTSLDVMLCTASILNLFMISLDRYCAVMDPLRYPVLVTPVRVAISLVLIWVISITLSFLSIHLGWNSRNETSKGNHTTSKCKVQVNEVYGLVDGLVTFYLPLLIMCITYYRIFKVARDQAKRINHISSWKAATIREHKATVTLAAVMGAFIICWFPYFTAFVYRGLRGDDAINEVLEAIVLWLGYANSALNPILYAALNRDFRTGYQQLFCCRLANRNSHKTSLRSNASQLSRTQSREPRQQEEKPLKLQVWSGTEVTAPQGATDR
5-HT2A (h) (human (printed (h))), P28223, sequence (P28223 whole entry): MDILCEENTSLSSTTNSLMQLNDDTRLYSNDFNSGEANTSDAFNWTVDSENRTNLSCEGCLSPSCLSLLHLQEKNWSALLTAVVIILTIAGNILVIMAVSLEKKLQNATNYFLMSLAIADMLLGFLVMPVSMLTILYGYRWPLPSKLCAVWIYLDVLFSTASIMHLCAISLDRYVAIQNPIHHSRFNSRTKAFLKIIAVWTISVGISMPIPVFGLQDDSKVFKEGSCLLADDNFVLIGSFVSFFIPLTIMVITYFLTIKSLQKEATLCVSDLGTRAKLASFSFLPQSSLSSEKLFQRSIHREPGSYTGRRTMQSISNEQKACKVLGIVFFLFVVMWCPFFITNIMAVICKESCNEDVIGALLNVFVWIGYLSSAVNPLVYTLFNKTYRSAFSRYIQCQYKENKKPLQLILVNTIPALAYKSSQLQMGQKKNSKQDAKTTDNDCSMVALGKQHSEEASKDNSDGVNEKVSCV

Row | Binder | % Inhibition of Specific Binding [1] [%] | % Inhibition of Specific Binding [2] [%] | % Inhibition of Specific Binding [3] [%] | % Inhibition of Specific Binding [4] [%] | % Inhibition of Specific Binding [5] [%] | % Inhibition of Specific Binding [6] [%] | % Inhibition of Specific Binding [7] [%] | % Inhibition of Specific Binding [8] [%] | % Inhibition of Specific Binding [9] [%]
1 | Hexanoyl-CPPTQFCD-NH2 (linker 1-7 via tMeBn(DOTA-PP)) [Hex-[Cys(tMeBn(DOTA-PP))-Pro-Pro-Thr-Gln-Phe-Cys]-Asp-NH2 (3BP-3407)] | 16 | -2 | 10 | 0 | -2 | -18 | -5 | 12 | -3
2 | Hexanoyl-CPPTQFC-OH (linker 1-7 via tMeBn(DOTA-AET)) [Hex-[Cys(tMeBn(DOTA-AET))-Pro-Pro-Thr-Gln-Phe-Cys]-OH (3BP-3554)] | 1 | 4 | 1 | 1 | 0 | 6 | -16 | 7 | -5
